Columns and labels:
[1] = Evaluation of degree of hydrophobicity by hydrophobic column chromatography (HIC-HPLC); format: physicochemical; settings: for Retention time: ADC mimics from thiol group-introduced trastuzumab, DAR 2
Protocol: (§1) According to a previous report (Anal. Chem., 2019, 91, 20, 12724-12732, which is incorporated herein by reference in tis entirety), HIC-HPLC analysis was performed. Measurement was performed using the following conditions. Degrees of hydrophobicity of an ADC can be evaluated by retention time of the ADC in HIC chromatogram.
Measurement system: Chromaster (registered trademark) (manufactured by Hitachi, Ltd.)
Column: Tosoh Biobuthyl NPR 2.5 μm 4.6×35 mm column manufactured by Tosoh Bio-Sciences Inc.
Gradient: linear gradient of eluent A/B
Eluent B: 25 mM Na2HPO4/NaH2PO4 (pH 6.0, 25 v/v % isopropanol added)
For DAR analysis of the ADC mimics synthesized in Example 7 and Comparative Example 2, HIC-HPLC analysis was performed according to a previous report (Anal. Chem., 2019, 91, 20, 12724-12732, which is incorporated herein by reference in its entirety). Measurement was performed using the following conditions.
HIC-HPLC analysis was performed using the condition of Example 8. Measurement was performed using the following conditions. A degree of hydrophobicity of ADC mimic can be evaluated by retention time of ADC in HIC chromatogram.
HIC-HPLC analysis was performed using the condition of Example 8.
Subsequently, hydrophobicity of an ADC was evaluated using HIC-HPLC. Measurement was performed according to Example 9. A degree of hydrophobicity of an ADC can be evaluated by retention time of ADC in HIC chromatogram.
as §1, with “its” for “tis”

[2] = Evaluation of aggregation ratio by size exclusion chromatography (SEC-HPLC); format: physicochemical
Protocol: SEC-HPLC analysis was performed according to a previous report (Chemistry Select, 2020, 5, 8435-8439). Measurement was performed using the following conditions.
Measurement system: 1260 HPLC system (manufactured by Agilent)
Column: AdvanceBio SEC 300 Å, 2.7 μm, 4.6 mm×150 mm, manufactured by Agilent Technologies
Eluent: 100 mM sodium dihydrogen phosphate/sodium hydrogen phosphate, aqueous solution of 250 mM sodium chloride (pH 6.8), 10% v/v isopropanol
SEC-HPLC analysis was performed according to Example 10.

Compound	Retention time ([1]; Table 2, HIC-HPLC) [min]	Retention time ([1]; Table 20) [min]	degree of hydrophilicity judged from retention time in HIC chromatogram (in words) [1]	tendency of aggregation ratio by SEC-HPLC (in words) [2]
CCCCCNC(=O)CCSC1CC(=O)N(CCCCCNC(=O)C(OC(=O)N(C)CC(=O)NCc2ccc3ccc4cccc5ccc2c3c45)c2ccc(NC(=O)[C@H](CCCNC(N)=O)NC(=O)[C@@H](NC(=O)OCc3ccccc3)C(C)C)cc2)C1=O (stereo partly drawn) [ADC mimic 5]	13.6	13.6		
CSC1CC(=O)N(CCCCCNC(=O)C(OC(=O)N(C)CC(=O)NCc2ccc3ccc4cccc5ccc2c3c45)c2ccc(NC(=O)[C@H](CCCNC(N)=O)NC(=O)[C@@H](NC(=O)[C@H](CCC(=O)O)NC(C)=O)C(C)C)cc2)C1=O (stereo partly drawn) [ADC mimic 12]			more hydrophilic	
CSC1CC(=O)N(CCCCCNC(=O)C(OC(=O)N(C)CC(=O)NCc2ccc3ccc4cccc5ccc2c3c45)c2ccc(NC(=O)[C@H](CCCNC(N)=O)NC(=O)[C@@H](NC(=O)[C@H](CCC(=O)O)NC(=O)[C@H](CCC(=O)O)NC(C)=O)C(C)C)cc2)C1=O (stereo partly drawn) [ADC mimic 13]			more hydrophilic	low aggregation ratios
CSC1CC(=O)N(CCCCCNC(=O)C(OC(=O)N(C)CC(=O)NCc2ccc3ccc4cccc5ccc2c3c45)c2ccc(NC(=O)[C@H](C)NC(=O)[C@@H](NC(=O)[C@H](CCC(=O)O)NC(C)=O)C(C)C)cc2)C1=O (stereo partly drawn) [ADC mimic 14]			more hydrophilic	

Source: patent publication US20240285788A1, “CONJUGATE OF ANTIBODY AND FUNCTIONAL SUBSTANCE OR SALT THEREOF, AND ANTIBODY DERIVATIVE AND COMPOUND USED IN PRODUCTION OF THE SAME OR SALTS THEREOF” (Ajinomoto Co., Inc., priority 2021, published 2024)
